These are literature values, as cited in article PMC5193440.

The first data set has as its target Cys30 (UniProt position 49, FFSFFCPHCYQ). To be noted: reduced active site (dithiol form).
Take “DsbA (thiol:disulfide interchange protein, EcDsbA) (Escherichia coli)”: the pKa is 3.3 ± 0.09.

A further data set relates to Cys. As to conditions: not stated.
As to “DsbA1 (WpDsbA1, alpha-DsbA1), wild type (Wolbachia pipientis)”, the pKa is listed as 4.7 ± 0.08.

Take DsbA (VcDsbA, TcpG) (Vibrio cholerae): the pKa is listed as 5.1.

On to DsbA (KpDsbA) (Klebsiella pneumoniae), for which the pKa is reported as 3.2.

Take “DsbA (MtbDsbA, Rv2969c) (Mycobacterium tuberculosis)”: the pKa is reported as 4.2 ± 0.2.

Consider “DsbA1 (NmDsbA1) (Neisseria meningitidis)”, for which the pKa is given as 3.0.

On to DsbA (SaDsbA) (Staphylococcus aureus), for which the pKa is 3.4 ± 0.07.

With “DsbA (SeDsbA) (Salmonella enterica (inferred from the abbreviation; the article only calls it an enterobacterial DsbA))”, the pKa is recorded as 3.3 ± 0.06.

What is called pKa is the negative logarithm of the acid dissociation constant.
